Data: IntAct's records for PubMed 30488537

B1: Prelamin-A/C (Homo sapiens), P02545 (parent)
chain: METPSQRRATRSGAQASSTPLSPTRITRLQEKEDLQELNDRLAVYIDRVRSLETENAGLRLRITESEEVVSREVSGIKAAYEAELGDARKTLDSVAKERARLQLELSKVREEFKELKARNTKKEGDLIAAQARLKDLEALLNSKEAALSTALSEKRTLEGELHDLRGQVAKLEAALGEAKKQLQDEMLRRVDAENRLQTMKEELDFQKNIYSEELRETKRRHETRLVEIDNGKQREFESRLADALQELRAQHEDQVEQYKKELEKTYSAKLDNARQSAERNSNLVGAAHEELQQSRIRIDSLSAQLSQLQKQLAAKEAKLRDLEDSLARERDTSRRLLAEKEREMAEMRARMQQQLDEYQELLDIKLALDMEIHAYRKLLEGEEERLRLSPSPTSQRSRGRASSHSSQTQGGGSVTKKRKLESTESRSSFSQHARTSGRVAVEEVDEEGKFVRLRNKSNEDQSMGNWQIKRQNGDDPLLTYRFPPKFTLKAGQVVTIWAAGAGATHSPPTDLVWKAQNTWGCGNSLRTALINSTGEEVAMRKLVRSVTVVEDDEDEDGDDLLHHHHGSHCSSSGDPAEYNLRSRTVLCGTCGQPADKASASGSGAQVGGPISSGSSASSVTVTRSYRSVGGSGGGSFGDNLVTRSYLLGNSSPRTQSPQNCSIM
partner: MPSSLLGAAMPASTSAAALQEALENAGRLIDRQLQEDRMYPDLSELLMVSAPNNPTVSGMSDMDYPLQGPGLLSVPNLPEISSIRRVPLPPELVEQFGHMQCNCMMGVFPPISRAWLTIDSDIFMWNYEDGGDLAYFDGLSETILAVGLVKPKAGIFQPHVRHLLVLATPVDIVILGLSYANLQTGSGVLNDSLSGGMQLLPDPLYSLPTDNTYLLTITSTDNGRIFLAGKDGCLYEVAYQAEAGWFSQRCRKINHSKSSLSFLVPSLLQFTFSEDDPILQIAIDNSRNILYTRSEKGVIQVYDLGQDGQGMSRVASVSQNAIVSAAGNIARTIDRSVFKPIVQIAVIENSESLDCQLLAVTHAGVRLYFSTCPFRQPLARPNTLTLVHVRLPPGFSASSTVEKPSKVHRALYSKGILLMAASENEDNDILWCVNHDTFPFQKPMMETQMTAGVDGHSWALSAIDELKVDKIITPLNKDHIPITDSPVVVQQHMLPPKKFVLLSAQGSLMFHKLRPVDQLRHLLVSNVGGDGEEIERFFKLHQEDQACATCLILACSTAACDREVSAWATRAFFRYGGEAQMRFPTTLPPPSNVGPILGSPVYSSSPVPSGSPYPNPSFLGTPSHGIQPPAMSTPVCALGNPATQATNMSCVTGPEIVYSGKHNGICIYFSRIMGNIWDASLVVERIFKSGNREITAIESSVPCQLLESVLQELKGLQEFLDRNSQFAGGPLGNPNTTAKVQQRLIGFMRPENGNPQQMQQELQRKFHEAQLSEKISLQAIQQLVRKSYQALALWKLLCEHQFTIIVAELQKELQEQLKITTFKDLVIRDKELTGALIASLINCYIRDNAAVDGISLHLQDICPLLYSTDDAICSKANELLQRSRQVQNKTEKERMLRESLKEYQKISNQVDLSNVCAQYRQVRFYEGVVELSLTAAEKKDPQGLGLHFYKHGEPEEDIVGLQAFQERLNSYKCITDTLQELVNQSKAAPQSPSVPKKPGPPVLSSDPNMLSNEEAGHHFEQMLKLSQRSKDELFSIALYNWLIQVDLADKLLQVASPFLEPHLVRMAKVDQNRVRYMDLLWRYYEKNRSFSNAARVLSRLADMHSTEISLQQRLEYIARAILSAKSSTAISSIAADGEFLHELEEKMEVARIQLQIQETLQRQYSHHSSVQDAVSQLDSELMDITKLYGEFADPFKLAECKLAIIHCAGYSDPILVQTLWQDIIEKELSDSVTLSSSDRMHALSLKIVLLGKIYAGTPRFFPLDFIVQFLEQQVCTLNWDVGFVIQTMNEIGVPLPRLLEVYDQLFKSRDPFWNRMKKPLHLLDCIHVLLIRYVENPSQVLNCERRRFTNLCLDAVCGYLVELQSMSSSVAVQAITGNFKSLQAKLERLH

Variants of: B1
Conditions: with nu155_human NUP155, O75694

Row | effect of a mutation on the interaction | Variant
1 | decreasing interaction strength | R399C

Variants of: B1
Conditions: with nu155_human NUP155, O75694
Remark: another data set of the same source

Row | effect of a mutation on the interaction | Variant
2 | with no effect | R399C
